Target: T1, EsCas13d, nuclease-dead (Eubacterium siraeum, UniProt B0MS50, R295A;H300A;R849A;H854A)
T1 sequence: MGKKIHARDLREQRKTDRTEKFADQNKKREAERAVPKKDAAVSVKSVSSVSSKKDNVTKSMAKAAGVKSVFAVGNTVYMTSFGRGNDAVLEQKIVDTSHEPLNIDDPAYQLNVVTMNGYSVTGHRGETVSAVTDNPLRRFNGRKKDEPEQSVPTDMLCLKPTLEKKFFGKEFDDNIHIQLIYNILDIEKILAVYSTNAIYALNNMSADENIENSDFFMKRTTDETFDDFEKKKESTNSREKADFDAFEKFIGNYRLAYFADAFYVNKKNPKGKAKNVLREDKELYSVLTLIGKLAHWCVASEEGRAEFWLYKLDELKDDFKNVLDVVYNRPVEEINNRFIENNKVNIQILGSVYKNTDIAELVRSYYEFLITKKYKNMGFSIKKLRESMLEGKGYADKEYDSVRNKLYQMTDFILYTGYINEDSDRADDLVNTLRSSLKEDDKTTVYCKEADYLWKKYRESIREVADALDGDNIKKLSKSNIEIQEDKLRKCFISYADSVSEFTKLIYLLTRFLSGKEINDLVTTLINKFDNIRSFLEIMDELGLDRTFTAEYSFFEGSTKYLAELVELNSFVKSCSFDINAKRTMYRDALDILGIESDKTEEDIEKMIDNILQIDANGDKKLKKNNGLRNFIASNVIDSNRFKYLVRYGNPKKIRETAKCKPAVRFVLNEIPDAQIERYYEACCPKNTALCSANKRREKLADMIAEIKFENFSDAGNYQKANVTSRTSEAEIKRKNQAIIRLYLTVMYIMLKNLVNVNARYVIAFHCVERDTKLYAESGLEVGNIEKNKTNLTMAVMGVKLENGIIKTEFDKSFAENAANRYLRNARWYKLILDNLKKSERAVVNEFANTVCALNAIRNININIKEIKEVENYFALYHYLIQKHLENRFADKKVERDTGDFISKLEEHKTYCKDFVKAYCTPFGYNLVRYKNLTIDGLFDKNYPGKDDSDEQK
Test: crRNA (strand 1, pre-loaded); Mg2+; 40 mM Tris-HCl pH 7.5, 150 mM NaCl, 6 mM MgCl2, 1 mM DTT, 0.1% Tween-20, 0.2 mg/ml BSA; 25 C; 10 min per concentration, then washed
Settings: tags: His6-TwinStrep-SUMO cleaved; N-terminal SNAP kept (SNAP-Surface 488); label: 3' end held by stalled T7 RNA polymerase

Binder | Kd [nM]
target 1 G12C,G15A (mixed) RNA 1: CACCCGUGCAAAAAUGCAGGGGUCUAAAACUGAGCGGAUAACCUCUCUAUGG RNA 2: GGGAAUGGAUCCACAUCUACGAAUUCGUACCAUAGAAAGCUUAUCCGCUCACCGAGAUCGGAAGAGCACACGU | 50 ± 16
target 1 insA 3' of 12,insC 3' of 3 (mixed) RNA 1: CACCCGUGCAAAAAUGCAGGGGUCUAAAACUGAGCGGAUAACCUCUCUAUGG RNA 2: GGGAAUGGAUCCACAUCUACGAAUUCGUACCAUAGAGAGGAUUAUCCGCUCCACCGAGAUCGGAAGAGCACACGU | 26.6 ± 3
target 2 MT 5'PFS GGC 3'PFS UAU (mixed) RNA 1: CACCCGUGCAAAAUUGCAGGGGUCUAAAACCUUCUCCAAAUUGUUUCAUCCU RNA 2: GGGAAUGGAUCCACAUCUACGAAUUCGGCAGGAUGAAACAAUUUGGAGAAGUAUAGAUCGGAAGAGCACACGU | 12.4 ± 1.5
target 2 MT 5'PFS UCA 3'PFS UCC (mixed) RNA 1: CACCCGUGCAAAAUUGCAGGGGUCUAAAACCUUCUCCAAAUUGUUUCAUCCU RNA 2: GGGAAUGGAUCCACAUCUACGAAUUCUCAAGGAUGAAACAAUUUGGAGAAGUCCAGAUCGGAAGAGCACACGU | 5.7 ± 0.8
target 2 MT 5'PFS GUU 3'PFS CGA (mixed) RNA 1: CACCCGUGCAAAAUUGCAGGGGUCUAAAACCUUCUCCAAAUUGUUUCAUCCU RNA 2: GGGAAUGGAUCCACAUCUACGAAUUCGUUAGGAUGAAACAAUUUGGAGAAGCGAAGAUCGGAAGAGCACACGU | 15.2 ± 1.5
target 2 MT 5'PFS AAC 3'PFS AAC (mixed) RNA 1: CACCCGUGCAAAAUUGCAGGGGUCUAAAACCUUCUCCAAAUUGUUUCAUCCU RNA 2: GGGAAUGGAUCCACAUCUACGAAUUCAACAGGAUGAAACAAUUUGGAGAAGAACAGAUCGGAAGAGCACACGU | 8.8 ± 3.5
target 2 MT 5'PFS AAA 3'PFS ACG (mixed) RNA 1: CACCCGUGCAAAAUUGCAGGGGUCUAAAACCUUCUCCAAAUUGUUUCAUCCU RNA 2: GGGAAUGGAUCCACAUCUACGAAUUCAAAAGGAUGAAACAAUUUGGAGAAGACGAGAUCGGAAGAGCACACGU | 4.4 ± 0.5
target 2 MT 5'PFS UAC 3'PFS ACA (mixed) RNA 1: CACCCGUGCAAAAUUGCAGGGGUCUAAAACCUUCUCCAAAUUGUUUCAUCCU RNA 2: GGGAAUGGAUCCACAUCUACGAAUUCUACAGGAUGAAACAAUUUGGAGAAGACAAGAUCGGAAGAGCACACGU | 4.9 ± 1.2
target 2 MT 5'PFS GUU 3'PFS CGU (mixed) RNA 1: CACCCGUGCAAAAUUGCAGGGGUCUAAAACCUUCUCCAAAUUGUUUCAUCCU RNA 2: GGGAAUGGAUCCACAUCUACGAAUUCGUUAGGAUGAAACAAUUUGGAGAAGCGUAGAUCGGAAGAGCACACGU | 12.9 ± 0.9
target 2 MT 5'PFS AAA 3'PFS ACU (mixed) RNA 1: CACCCGUGCAAAAUUGCAGGGGUCUAAAACCUUCUCCAAAUUGUUUCAUCCU RNA 2: GGGAAUGGAUCCACAUCUACGAAUUCAAAAGGAUGAAACAAUUUGGAGAAGACUAGAUCGGAAGAGCACACGU | 9.5 ± 2.9
target 2 MT 5'PFS AUC 3'PFS AUG (mixed) RNA 1: CACCCGUGCAAAAUUGCAGGGGUCUAAAACCUUCUCCAAAUUGUUUCAUCCU RNA 2: GGGAAUGGAUCCACAUCUACGAAUUCAUCAGGAUGAAACAAUUUGGAGAAGAUGAGAUCGGAAGAGCACACGU | ~70
target 2 MT 5'PFS GUU 3'PFS CGG (mixed) RNA 1: CACCCGUGCAAAAUUGCAGGGGUCUAAAACCUUCUCCAAAUUGUUUCAUCCU RNA 2: GGGAAUGGAUCCACAUCUACGAAUUCGUUAGGAUGAAACAAUUUGGAGAAGCGGAGAUCGGAAGAGCACACGU | 17 ± 1.6
target 2 MT 5'PFS UAC 3'PFS ACG (mixed) RNA 1: CACCCGUGCAAAAUUGCAGGGGUCUAAAACCUUCUCCAAAUUGUUUCAUCCU RNA 2: GGGAAUGGAUCCACAUCUACGAAUUCUACAGGAUGAAACAAUUUGGAGAAGACGAGAUCGGAAGAGCACACGU | 5.6 ± 1.3

From article PMC10786891, “Massively parallel profiling of RNA-targeting CRISPR-Cas13d”
